Assay results taken from ChEMBL document CHEMBL1255351, “Biochemical characterization of metallo-beta-lactamase VIM-11 from a Pseudomonas aeruginosa clinical strain” (2008).
≈ marks a conversion by molar mass, not a printed value.

Assays:
Escherichia coli [1] = assay: Antimicrobial activity Escherichia coli DH5alpha expressing metallo-beta-lactamase VIM-11 by agar macrodilution method; format: functional
Escherichia coli [2] = assay: Antimicrobial activity Escherichia coli DH5alpha expressing beta lactamase VIM-2 by agar macrodilution method; format: functional
Escherichia coli [3] = assay: Antimicrobial activity Escherichia coli DH5alpha harboring bacteriophage T4 plasmid alpha omega by agar macrodilution method; format: functional
Pseudomonas aeruginosa = assay: Ratio of Kcat to Km for Pseudomonas aeruginosa COL-1 metallo-beta lactamase VIM-2 over Kcat to Km for Pseudomonas aeruginosa M5109 metallo-beta-lactamase VIM-11
Escherichia coli [4] = assay: Activity at Escherichia coli DH5alpha metallo-beta-lactamase VIM-11 assessed as compound hydrolysis per mg of total periplasmic protein by spectrometry
[5] = target: Metallo-beta-lactamase (Escherichia coli) (UniProt Q5U7L7); assay: Activity at Escherichia coli DH5alpha metallo-beta-lactamase VIM-2 assessed as compound hydrolysis per mg of total periplasmic protein by spectrometry
[6] = tested on: CC(=O)OCC1=C(C(=O)O)N2C(=O)[C@@H](NC(=O)Cc3cccs3)[C@H]2SC1; assay: (§1) Activity at Pseudomonas aeruginosa M5109 metallo-beta-lactamase VIM-11 by spectrometry
[7] = tested on: CC(C)(O/N=C(\C(=O)N[C@@H]1C(=O)N2C(C(=O)[O-])=C(C[n+]3ccccc3)CS[C@H]12)c1csc(N)n1)C(=O)O; assay: as §1
[8] = tested on: CC1(C)S[C@@H]2[C@H](NC(=O)[C@H](N)c3ccccc3)C(=O)N2[C@H]1C(=O)O; assay: as §1
[9] = tested on: CO/N=C(\C(=O)N[C@@H]1C(=O)N2C(C(=O)O)=C(COC(C)=O)CS[C@H]12)c1csc(N)n1; assay: as §1
[10] = tested on: CO/N=C(\C(=O)N[C@@H]1C(=O)N2C(C(=O)O)=C(COC(N)=O)CS[C@H]12)c1ccco1; assay: as §1
[11] = tested on: CO/N=C(\C(=O)N[C@@H]1C(=O)N2C(C(=O)[O-])=C(C[n+]3cccc4c3CCC4)CS[C@H]12)c1csc(N)n1; assay: as §1
[12] = tested on: CO[C@@]1(NC(=O)Cc2cccs2)C(=O)N2C(C(=O)O)=C(COC(N)=O)CS[C@@H]21; assay: as §1
[13] = tested on: C[C@@H](O)[C@H]1C(=O)N2C(C(=O)O)=C(S[C@@H]3CN[C@H](C(=O)N(C)C)C3)[C@H](C)[C@H]12; assay: as §1
[14] = tested on: O=C(Cc1cccs1)N[C@@H]1C(=O)N2C(C(=O)O)=C(/C=C/c3ccc([N+](=O)[O-])cc3[N+](=O)[O-])CS[C@H]12; assay: as §1
[15] = tested on: CC(=O)OCC1=C(C(=O)O)N2C(=O)[C@@H](NC(=O)Cc3cccs3)[C@H]2SC1; assay: (§2) Ratio of Kcat to Km for Pseudomonas aeruginosa M5109 metallo-beta-lactamase VIM-11
[16] = tested on: CC(C)(O/N=C(\C(=O)N[C@@H]1C(=O)N2C(C(=O)[O-])=C(C[n+]3ccccc3)CS[C@H]12)c1csc(N)n1)C(=O)O; assay: as §2
[17] = tested on: CC1(C)S[C@@H]2[C@H](NC(=O)[C@H](N)c3ccccc3)C(=O)N2[C@H]1C(=O)O; assay: as §2
[18] = tested on: CO/N=C(\C(=O)N[C@@H]1C(=O)N2C(C(=O)O)=C(COC(C)=O)CS[C@H]12)c1csc(N)n1; assay: as §2
[19] = tested on: CO/N=C(\C(=O)N[C@@H]1C(=O)N2C(C(=O)O)=C(COC(N)=O)CS[C@H]12)c1ccco1; assay: as §2
[20] = tested on: CO/N=C(\C(=O)N[C@@H]1C(=O)N2C(C(=O)[O-])=C(C[n+]3cccc4c3CCC4)CS[C@H]12)c1csc(N)n1; assay: as §2
[21] = tested on: CO[C@@]1(NC(=O)Cc2cccs2)C(=O)N2C(C(=O)O)=C(COC(N)=O)CS[C@@H]21; assay: as §2
[22] = tested on: C[C@@H](O)[C@H]1C(=O)N2C(C(=O)O)=C(S[C@@H]3CN[C@H](C(=O)N(C)C)C3)[C@H](C)[C@H]12; assay: as §2
[23] = tested on: O=C(Cc1cccs1)N[C@@H]1C(=O)N2C(C(=O)O)=C(/C=C/c3ccc([N+](=O)[O-])cc3[N+](=O)[O-])CS[C@H]12; assay: as §2

## CC1(C)S[C@@H]2[C@H](NC(=O)Cc3ccccc3)C(=O)N2[C@H]1C(=O)O [PENICILLIN G]
Escherichia coli [1]
  MIC: 128 µg/mL (≈ 383 µM)
Escherichia coli [2]
  MIC: 128 µg/mL (≈ 383 µM)

## CO[C@@]1(NC(=O)Cc2cccs2)C(=O)N2C(C(=O)O)=C(COC(N)=O)CS[C@@H]21 [CEFOXITIN]
Escherichia coli [3]
  MIC: 4 µg/mL (≈ 9.36 µM)
Escherichia coli [1]
  MIC: 32 µg/mL (≈ 74.9 µM)
Escherichia coli [2]
  MIC: 64 µg/mL (≈ 150 µM)
Pseudomonas aeruginosa
  kcat/Km ratio: 0.86

## O=C(Cc1cccs1)N[C@@H]1C(=O)N2C(C(=O)O)=C(/C=C/c3ccc([N+](=O)[O-])cc3[N+](=O)[O-])CS[C@H]12
Pseudomonas aeruginosa
  kcat/Km ratio: 1.06

## CO/N=C(\C(=O)N[C@@H]1C(=O)N2C(C(=O)O)=C(COC(C)=O)CS[C@H]12)c1csc(N)n1 [CEFOTAXIME]
Escherichia coli [3]
  MIC: 0.03 µg/mL (≈ 0.0659 µM)
Escherichia coli [1]
  MIC: 4 µg/mL (≈ 8.78 µM)
Escherichia coli [2]
  MIC: 8 µg/mL (≈ 17.6 µM)
Pseudomonas aeruginosa
  kcat/Km ratio: 0.78

## CC1(C)S[C@@H]2[C@H](NC(=O)[C@H](N)c3ccccc3)C(=O)N2[C@H]1C(=O)O [AMPICILLIN]
Escherichia coli [3]
  MIC: 8 µg/mL (≈ 22.9 µM)
Escherichia coli [1]
  MIC: 64 µg/mL (≈ 183 µM)
Escherichia coli [2]
  MIC: 256 µg/mL (≈ 733 µM)
Pseudomonas aeruginosa
  kcat/Km ratio: 0.81

## CC(=O)OCC1=C(C(=O)O)N2C(=O)[C@@H](NC(=O)Cc3cccs3)[C@H]2SC1 [CEPHALOTHIN]
Escherichia coli [3]
  MIC: 4 µg/mL (≈ 10.1 µM)
Escherichia coli [1]
  MIC: 64 µg/mL (≈ 161 µM)
Escherichia coli [2]
  MIC: 64 µg/mL (≈ 161 µM)
Pseudomonas aeruginosa
  kcat/Km ratio: 1.12
Escherichia coli [4]
  Activity: 5.4 µmol
[5]
  Activity: 141 µmol

## CO/N=C(\C(=O)N[C@@H]1C(=O)N2C(C(=O)[O-])=C(C[n+]3cccc4c3CCC4)CS[C@H]12)c1csc(N)n1 [CEFPIROME]
Escherichia coli [3]
  MIC: 0.015 µg/mL (≈ 0.0291 µM)
Escherichia coli [1]
  MIC: 0.5 µg/mL (≈ 0.972 µM)
Escherichia coli [2]
  MIC: 0.25 µg/mL (≈ 0.486 µM)
Pseudomonas aeruginosa
  kcat/Km ratio: 2

## Metallo-beta-lactamase VIM-11 (Pseudomonas aeruginosa) (from UniProt C7DTR7)
[6]
  Km: 4.5 µM
  kcat: 81 s⁻¹
[7]
  Km: 110 µM
  kcat: 14 s⁻¹
[8]
  Km: 109 µM
  kcat: 190 s⁻¹
[9]
  Km: 11.4 µM
  kcat: 41.3 s⁻¹
[10]
  Km: 5.5 µM
  kcat: 27 s⁻¹
[11]
  Km: 183 µM
  kcat: 102 s⁻¹
[12]
  Km: 7.4 µM
  kcat: 6.4 s⁻¹
[13]
  Km: 22.7 µM
  kcat: 3.2 s⁻¹
[14]
  Km: 8.2 µM
  kcat: 129 s⁻¹
[15]
  kcat/Km: 1.8 ×10⁶ /M/s
[16]
  kcat/Km: 1.3 ×10⁶ /M/s
[17]
  kcat/Km: 1.8 ×10⁶ /M/s
[18]
  kcat/Km: 3.6 ×10⁶ /M/s
[19]
  kcat/Km: 4.9 ×10⁶ /M/s
[20]
  kcat/Km: 5.6 ×10⁶ /M/s
[21]
  kcat/Km: 8.6 ×10⁶ /M/s
[22]
  kcat/Km: 1.4 ×10⁶ /M/s
[23]
  kcat/Km: 1.6 ×10⁶ /M/s
